What all share (format): biochemical
Series [1] in a line: HTP-analysis of supernatants pretreated with base (MUGal hydrolysis). As to conditions: activity of the variant/activity of Rd7BB (SEQ ID NO: 44); challenge at pH 7.5. The method in brief:
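Fluorescence of released 4-MU (Ex 355 nm, Em 448 nm) after carbonate quench reports MUGal hydrolysis by GLA variants secreted from INVSc1 yeast. Before the acidic (pH 4.3-4.8) 30-180 min reaction at 37° C, supernatants had been pre-incubated at pH 7.0-9.7 for 1-18 h at 37° C.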

Series [2] can be described thus: HTP-analysis of yeast culture supernatants, no challenge (MUGal hydrolysis). As to conditions: activity of the variant/activity of Rd7BB (SEQ ID NO: 44). The procedure, abridged:
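GLA variants were expressed in INVSc1 yeast grown in SD-Ura broth with glucose at 30° C., and culture supernatants were collected after 66-84 h. Supernatant was mixed with McIlvaine buffer pH 4.8 and MUGal (2 mM stock) in 50 mM citrate, 200 mM KCl, pH 4.6, incubated at 37° C. for 30-180 minutes, then quenched with sodium carbonate.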

Series [3] is described as follows: HTP-analysis of supernatants pretreated with acid (MUGal hydrolysis). As to conditions: activity of the variant/activity of Rd7BB (SEQ ID NO: 44); challenge at pH 3.5. The method in brief: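 MUGal hydrolysis was tracked by fluorescence (Ex 355 nm, Em 448 nm) after a 30-180 min reaction at 37° C. in pH 4.8 McIlvaine/citrate buffer, stopped with 1 M sodium carbonate. Beforehand, yeast (INVSc1) culture supernatants carrying GLA variants were held 1-3 h at 37° C. in acidic McIlvaine buffer, pH 3.3-4.3.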

B1: 652 (protein)
chain: LDNGLARTPTMGWLHWERFMCNLDCQEEPDSCISEKLFMEMAERMVTEGWKDAGYEYLCIDDCWMAPQRDSEGRLQADPQRFPHGIRQLANHVHSKGLKLGIYADVGNKTCAGFPGSFGYYDIDAQTFADWGVDLLKFDGCYCDSLENLADGYKHMSLALNRTGRPIVYSCEWPLYMWPFQKPNYTEIRQYCNHWRNFADIDDSWASIKSILDWTSRNQERIVDVAGPGGWNDPDMLVIGNFGLSPDQQVTQMALWAIMAGPLFMSNDLRAISPQAKALLQDKDVIAINQDPLGKQGYQLRKGDLFEVWERPLSGDAWAVAIINRQEIGGPRSYTIPVASLGKGVACNPACFITQLLPVKRQLGFYNWTSRLKSHINPTGTVLLQLENTMQTSLKDLL
modifications: Synthetic Polypeptide sequence of Variant No. 652 of mature Human GLA
Turning to B1, the “Relative Activity of GLA Variants After Challenge at pH 7.5” value (“Relative Activity … at pH 7.5” below) in series [1] was “− (<0.5 relative activity to Rd7BB (SEQ ID NO: 44))”. Further, in series [2], the “Relative Activity of GLA Variants After No Challenge (NC)” value is reported as “+ (>0.5 to 1.5 relative activity over Rd7BB (SEQ ID NO: 44))”. For the same molecule, the “Relative Activity of GLA Variants After Challenge at pH 3.5” value (from here on “Relative Activity … at pH 3.5”) in series [3] is “+ (>0.5 to 1.5 relative activity over Rd7BB (SEQ ID NO: 44))”.

B2: 638 (protein)
chain: LDNGLARTPPMGWLHWERFMCNLDCQEEPDSCISEKLFMEMAERMVTEGWKDAGYEYLCIDDCWMAPQRDSEGRLQADPQRFPHGIRQLANHVHSKGLKLGIYADVGNKTCAGFPGSFGYYDIDAQTFADWGVDLLKFDGCYCDSLENLADGYKHMSLALNRTGRPIVYSCEWPLYMWPFQKPNYTEIRQYCNHWRNFADIDDSWASIKSILDWTSRNQERIVDVAGPGGWNDPDMLVIGNFGLSWDQQVTQMALWAIMAGPLFMSNDLRAISPQAKALLQDKDVIAINQDPLGKQGYQLRKGDNFEVWERPLSGDAWAVAIINRQEIGGPRSYTIPVASLGKGVACNPACFITQLLPVKRQLGFYNWTSRLKSHINPTGTVLLQLENTMQTSLKDLL
modifications: Synthetic Polypeptide sequence of Variant No. 638 of mature Human GLA
On to B2, for which, in series [1], the “Relative Activity … at pH 7.5” value is reported as “− (<0.5 relative activity to Rd7BB (SEQ ID NO: 44))”. Further, the “Relative Activity of GLA Variants After No Challenge (NC)” value in series [2] is reported as “− (<0.5 relative activity to Rd7BB (SEQ ID NO: 44))”. Moreover, in series [3], the “Relative Activity … at pH 3.5” value was “− (<0.5 relative activity to Rd7BB (SEQ ID NO: 44))”.

B3: 655 (protein)
chain: LDNGLARTPTMGWLHWERFMCNLDCQEEPDSCISEKLFMEMAERMVTEGWKDAGYEYLCIDDCWMAPQRDSEGRLQADPQRFPHGIRQLANHVHSKGLKLGIYADVGNKTCAGFPGSFGYYDIDAQTFADWGVDLLKFDGCYCDSLENLADGYKHMSLALNRTGRPIVYSCEWPLYMWPFQKPNYTEIRQYCNHWRNFADIDDSWASIKSILDWTSRNQERIVDVAGPGGWNDPDMLVIGNFGLSPDQQVTQMALWAIMAGPLFMSNDLRAISPQAKALLQDKDVIAINQDPLGKQGYQLRKGDLFEVWERPLSGDAWAVAIINRQEIGGPRSYTIPVASLGKGVACNPACFITQLLPVKRQLGFYNATSRLKSHINPTGTVLLQLENTMQTSLKDLL
modifications: Synthetic Polypeptide sequence of Variant No. 655 of mature Human GLA
For the molecule B3, in series [1], the “Relative Activity … at pH 7.5” value was “− (<0.5 relative activity to Rd7BB (SEQ ID NO: 44))”. The “Relative Activity of GLA Variants After No Challenge (NC)” value in series [2] is “+ (>0.5 to 1.5 relative activity over Rd7BB (SEQ ID NO: 44))”. Besides, the “Relative Activity … at pH 3.5” value in series [3] is listed as “− (<0.5 relative activity to Rd7BB (SEQ ID NO: 44))”.

B4: 656 (protein)
chain: LDNGLARTPPMGWLHWERFMCNLDCQEEPDSCISEKLFMEMAERMVTEGWKDAGYEYLCIDDCWMAPQRDSEGRLQADPQRFPHGIRQLANHVHSKGLKLGIYADVGNKTCAGFPGSFGYYDIDAQTFADWGVDLLKFDGCYCDSLENLADGYKHMSLALNRTGRPIVYSCEWPLYMWPFQKPNYTEIRQYCNHWRNFADIDDSWASIKSILDWTSRNQERIVDVAGPGGWNDPDMLVIGNFGLSPDQQVTQMALWAIMAGPLFMSNDLRAISPQAKALLQDKDVIAINQDPLGKQGYQLRKGDNFEVWERPLSGDAWAVAIINRQEIGGPRSYTIPVASLGKGVACNPACFITQLLPVKRQLGFYNWTSRLKSHINPTGTVLLQLENTMQTSLKDLL
modifications: Synthetic Polypeptide sequence of Variant No. 656 of mature Human GLA
For B4, the “Relative Activity … at pH 7.5” value in series [1] was “+ (>0.5 to 1.5 relative activity over Rd7BB (SEQ ID NO: 44))”. For the same molecule, the “Relative Activity of GLA Variants After No Challenge (NC)” value in series [2] is reported as “+ (>0.5 to 1.5 relative activity over Rd7BB (SEQ ID NO: 44))”. Further, the “Relative Activity … at pH 3.5” value in series [3] is listed as “+ (>0.5 to 1.5 relative activity over Rd7BB (SEQ ID NO: 44))”.

B5: 657 (protein)
chain: LDNGLARTPTMGWLHWERFMCNLDCQEEPDSCISEKLFMEMAERMVTEGWKDAGYEYLCIDDCWMATQRDSEGRLQADPQRFPHGIRQLANHVHSKGLKLGIYADVGNKTCAGFPGSFGYYDIDAQTFADWGVDLLKFDGCYCDSLENLADGYKHMSLALNRTGRPIVYSCEWPLYMWPFQNPNYTEIRQYCNHWRNFADIDDSWASIKSILDWTSRNQERIVDVAGPGGWNDPDMLVIGNFGLSWDQQVTQMALWAIMAAPLFMSNDLRAISPQAKALLQDKDVIAINQDPLGKQGYQLRKGDNFEVWERPLSGDAWAVAIINRQEIGGPRSYTIPVASLGKGVACNPACFITQLLPVKRQLGFYNWTSRLKSHINPTGTVLLQLENTMQTSLKDLL
modifications: Synthetic Polypeptide sequence of Variant No. 657 of mature Human GLA
Turning to B5, the “Relative Activity … at pH 7.5” value in series [1] is reported as “+ (>0.5 to 1.5 relative activity over Rd7BB (SEQ ID NO: 44))”. Also, the “Relative Activity of GLA Variants After No Challenge (NC)” value in series [2] is listed as “+ (>0.5 to 1.5 relative activity over Rd7BB (SEQ ID NO: 44))”. In addition, the “Relative Activity … at pH 3.5” value in series [3] was “+ (>0.5 to 1.5 relative activity over Rd7BB (SEQ ID NO: 44))”.

B6: 654 (protein)
chain: LDNGLASTPTMGWLHWERFMCNLDCQEEPDSCISEKLFMEMAERMVTEGWKDAGYEYLCIDDCWMAPQRDSEGRLQADPQRFPHGIRQLANHVHSKGLKLGIYADVGNKTCAGFPGSFGYYDIDAQTFADWGVDLLKFDGCYCDSLENLADGYKHMSLALNRTGRPIVYSCEWPLYMWPFQKPNYTEIRQYCNHWRNFADIDDSWASIKSILDWTSRNQERIVDVAGPGGWNDPDMLVIGNFGLSWDQQVTQMALWAIMAAPLFMSNDLRAISPQAKALLQDKDVIAINQDPLGKQGYQLRKGDNFEVWERPLSGDAWAVAIINRQEIGGPRSYTIPVASLGKGVACNPACFITQLLPVKRQLGFYNWTSRLKSHINPTGTVLLQLENTMQTSLKDLL
modifications: Synthetic Polypeptide sequence of Variant No. 654 of mature Human GLA
On to B6, for which the “Relative Activity … at pH 7.5” value in series [1] is listed as “+ (>0.5 to 1.5 relative activity over Rd7BB (SEQ ID NO: 44))”. Further, the “Relative Activity of GLA Variants After No Challenge (NC)” value in series [2] is recorded as “+ (>0.5 to 1.5 relative activity over Rd7BB (SEQ ID NO: 44))”. In series [3], the “Relative Activity … at pH 3.5” value is listed as “+ (>0.5 to 1.5 relative activity over Rd7BB (SEQ ID NO: 44))”.

B7: 653 (protein)
chain: LDNGLARTPPMGWLHWERFMCNLDCQEEPDSCISEKLFMEMAERMVTEGWKDAGYEYLCIDDCWMAPQRDSEGRLQADPQRFPHGIRQLANHVHSKGLKLGIYADVGNKTCAGFPGSFGYYDIDAQTFADWGVDLLKFDGCYCDSLENLADGYKHMSLALNRTGRPIVYSCEWPLYMWPFQKPNYTEIRQYCNHWRNFADIDDSWASIKSILDWTSRNQERIVDVAGPGGWNDPDMLVIGNFGLSPDQQVTQMALWAIMAAPLFMSNDLRAISPQAKALLQDKDVIAINQDPLGKQGYQLRKGDNFEVWERPLSGDAWAVAIINRQEIGGPRSYTIPVASLGKGVACNPACFITQLLPVKRQLGFYNWTSRLKSHINPTGTVLLQLENTMQTSLKDLL
modifications: Synthetic Polypeptide sequence of Variant No. 653 of mature Human GLA
On to B7, for which the “Relative Activity … at pH 7.5” value in series [1] is listed as “+ (>0.5 to 1.5 relative activity over Rd7BB (SEQ ID NO: 44))”. In series [2], the “Relative Activity of GLA Variants After No Challenge (NC)” value was “+ (>0.5 to 1.5 relative activity over Rd7BB (SEQ ID NO: 44))”. The “Relative Activity … at pH 3.5” value in series [3] is “+ (>0.5 to 1.5 relative activity over Rd7BB (SEQ ID NO: 44))”.

B8: 658 (protein)
chain: LDNGLARTPTMGWLHWERFMCNLDCQEEPDSCISEKLFEEMAERMVTEGWKDAGYEYLCIDDCWMAPQRDSEGRLQADPQRFPHGIRQLANHVHSKGLKLGIYADVGNKTCAGFPGSFGYYDIDAQTFADWGVDLLKFDGCYCDSLENLADGYKHMSLALNRTGRPIVYSCEWPLYMWPFQKPNYTEIRQYCNHWRNFADIDDSWASIKSILDWTSRNQERIVDVAGPGGWNDPDMLVIGNFGLSPDQQVTQMALWAIMAAPLFMSNDLRAISPQAKALLQDKDVIAINQDPLGKQGYQLRKGDNFEVWERPLSGDAWAVAIINRQEIGGPRSYTIPVASLGKGVACNPACFITQLLPVKRQLGFYNWTSRLKSHINPTGTVLLQLENTMQTSLKDLL
modifications: Synthetic Polypeptide sequence of Variant No. 658 of mature Human GLA
With B8, the “Relative Activity … at pH 7.5” value in series [1] is reported as “+ (>0.5 to 1.5 relative activity over Rd7BB (SEQ ID NO: 44))”. In series [2], the “Relative Activity of GLA Variants After No Challenge (NC)” value was “+ (>0.5 to 1.5 relative activity over Rd7BB (SEQ ID NO: 44))”. Also, in series [3], the “Relative Activity … at pH 3.5” value was “+ (>0.5 to 1.5 relative activity over Rd7BB (SEQ ID NO: 44))”.

(Values after patent US11278600B2, “Human alpha-galactosidase variants” (Codexis, Inc., priority 2014, dated 2022).)
